The results in this text go back to publication doi:10.1101/2020.04.18.045682.

In test [1] the target is Cas10d (Synechocystis sp. PCC 6803). Nature of the test: affinity purification with mass spectrometry.
Test [2] has as its target type I-D Cascade lacking Cas11d (Synechocystis sp. PCC 6803). Nature of the test: negative-stain electron microscopy, 3D reconstruction.

As a reminder, the stoichiometry N is the number of molecules, sites or subunits per partner or assembly. In test [1], Cas5d (natural protein) came in with a stoichiometry N of 1.

For Cas6d (natural protein), the stoichiometry N in test [1] turned out to be 1.

Cas7d (natural protein) came in with a stoichiometry N in test [1] of 6.

For Cas11d (natural protein), the stoichiometry N in test [1] and in test [2] was 2 throughout.
